The target in the assay is purified E. coli 30S ribosomal subunit (E. coli (endogenous in MRE600)). As to the kind of experiment: fluorescence polarisation; cf-labeled peptide (10 µL of 40 nmol/L) added to a 2-fold dilution series (22 steps, 10 µL) of pure 70S ribosome, 50S or 30S subunit; ribosome preparation buffer (20 mmol/L HEPES-KOH, 6 mmol/L MgCl2, 30 mmol/L NH4Cl, pH 7.6); 28 ± 1 °C, 90 min; apparent Kd (average over at least two or three sites). In general terms: Fluorescence polarisation rises when a labelled molecule tumbles more slowly, as on binding a larger partner.

[ ]: non-standard residue; d: D form.

As for {5(6)‑carboxyfluorescein}-VDKPPYLPRPRPPR[dR]IYN[dR]-NH2 [cf-Onc112 (5(6)-carboxyfluorescein-labeled Onc112, …rIYNr-NH2)], the fold weaker binding than to the 50S subunit is 23 fold.

The values above are taken from article PMC11087509, “Multimodal binding and inhibition of bacterial ribosomes by the antimicrobial peptides Api137 and Api88” (Nature Communications, 2024).
